Assays:
Conditions in all cases: protein: recombinant; tags: N-terminal His-SUMO, removed by ULP1; label: FAM; single strand
[1] = target: T1, DDX21 helicase core (D1D2, DDX21-delNC) (human, UniProt Q9NR30 188-563); assay: MST; 2 mM AMPPNP, 2 mM MgCl2; value only in figure; MST: 50 mM Tris pH 7.5, 50 mM KCl, 2 mM MgCl2, 1 mM TCEP, 0.01% NP-40, 0.05 mg/mL BSA, 2 mM AMPPNP, 50 nM FAM-RNA; temperature not given; crosslinking buffer not in material
T1 sequence: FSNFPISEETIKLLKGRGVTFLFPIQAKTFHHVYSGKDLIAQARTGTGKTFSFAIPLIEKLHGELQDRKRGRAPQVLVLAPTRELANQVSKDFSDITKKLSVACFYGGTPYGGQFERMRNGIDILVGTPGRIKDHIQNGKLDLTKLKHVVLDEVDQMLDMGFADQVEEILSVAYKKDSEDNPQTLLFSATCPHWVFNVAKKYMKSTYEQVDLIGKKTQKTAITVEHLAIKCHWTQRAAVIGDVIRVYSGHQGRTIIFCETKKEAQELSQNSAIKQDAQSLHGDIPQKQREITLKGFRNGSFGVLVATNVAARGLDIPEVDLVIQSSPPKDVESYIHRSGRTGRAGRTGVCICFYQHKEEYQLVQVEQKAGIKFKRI

[2] = target: T2, DDX21 core T494A (human, UniProt Q9NR30 188-563, T494A); assay: UV crosslinking; negligibly affected; MST: 50 mM Tris pH 7.5, 50 mM KCl, 2 mM MgCl2, 1 mM TCEP, 0.01% NP-40, 0.05 mg/mL BSA, 2 mM AMPPNP, 50 nM FAM-RNA; temperature not given; crosslinking buffer not in material
T2 sequence: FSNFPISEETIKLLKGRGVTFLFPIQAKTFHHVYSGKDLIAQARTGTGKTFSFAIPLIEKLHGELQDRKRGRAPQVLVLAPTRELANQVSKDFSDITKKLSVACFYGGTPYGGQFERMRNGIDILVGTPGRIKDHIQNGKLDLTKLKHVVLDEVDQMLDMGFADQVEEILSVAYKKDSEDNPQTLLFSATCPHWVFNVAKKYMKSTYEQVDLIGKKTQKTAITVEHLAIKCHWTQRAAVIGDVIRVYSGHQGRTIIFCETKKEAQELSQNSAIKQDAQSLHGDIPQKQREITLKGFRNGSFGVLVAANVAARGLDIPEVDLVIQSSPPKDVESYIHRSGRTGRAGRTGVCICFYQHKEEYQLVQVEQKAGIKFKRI

[3] = target: T3, DDX21 core T315A (human, UniProt Q9NR30 188-563, T315A); assay: as above
T3 sequence: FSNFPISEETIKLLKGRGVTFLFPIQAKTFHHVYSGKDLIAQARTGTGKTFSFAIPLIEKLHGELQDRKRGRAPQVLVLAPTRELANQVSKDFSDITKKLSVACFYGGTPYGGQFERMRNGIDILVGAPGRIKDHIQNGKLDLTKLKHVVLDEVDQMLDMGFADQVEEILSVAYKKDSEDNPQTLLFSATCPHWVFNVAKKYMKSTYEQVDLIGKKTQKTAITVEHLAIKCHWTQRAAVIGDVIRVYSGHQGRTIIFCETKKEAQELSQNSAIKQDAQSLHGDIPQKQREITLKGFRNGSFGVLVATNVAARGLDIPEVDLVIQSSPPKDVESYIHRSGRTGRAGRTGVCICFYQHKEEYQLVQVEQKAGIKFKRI

[4] = target: T4, DDX21 core del-loop (human, UniProt Q9NR30 188-563, del401-405); assay: UV crosslinking; retains more than half; MST: 50 mM Tris pH 7.5, 50 mM KCl, 2 mM MgCl2, 1 mM TCEP, 0.01% NP-40, 0.05 mg/mL BSA, 2 mM AMPPNP, 50 nM FAM-RNA; temperature not given; crosslinking buffer not in material
T4 sequence: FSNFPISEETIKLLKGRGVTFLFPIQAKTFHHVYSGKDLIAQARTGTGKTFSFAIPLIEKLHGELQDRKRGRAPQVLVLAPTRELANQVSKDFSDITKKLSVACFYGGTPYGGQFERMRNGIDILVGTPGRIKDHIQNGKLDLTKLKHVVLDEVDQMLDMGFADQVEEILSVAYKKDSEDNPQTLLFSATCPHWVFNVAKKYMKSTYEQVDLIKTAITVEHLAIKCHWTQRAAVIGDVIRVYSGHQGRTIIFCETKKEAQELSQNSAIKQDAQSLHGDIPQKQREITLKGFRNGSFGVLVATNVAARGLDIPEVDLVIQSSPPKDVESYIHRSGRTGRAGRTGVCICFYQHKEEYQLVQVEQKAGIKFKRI

[5] = target: T5, DDX21 core S375L/A376E (human, UniProt Q9NR30 188-563, S375L;A376E); assay: UV crosslinking; about half of activity; MST: 50 mM Tris pH 7.5, 50 mM KCl, 2 mM MgCl2, 1 mM TCEP, 0.01% NP-40, 0.05 mg/mL BSA, 2 mM AMPPNP, 50 nM FAM-RNA; temperature not given; crosslinking buffer not in material
T5 sequence: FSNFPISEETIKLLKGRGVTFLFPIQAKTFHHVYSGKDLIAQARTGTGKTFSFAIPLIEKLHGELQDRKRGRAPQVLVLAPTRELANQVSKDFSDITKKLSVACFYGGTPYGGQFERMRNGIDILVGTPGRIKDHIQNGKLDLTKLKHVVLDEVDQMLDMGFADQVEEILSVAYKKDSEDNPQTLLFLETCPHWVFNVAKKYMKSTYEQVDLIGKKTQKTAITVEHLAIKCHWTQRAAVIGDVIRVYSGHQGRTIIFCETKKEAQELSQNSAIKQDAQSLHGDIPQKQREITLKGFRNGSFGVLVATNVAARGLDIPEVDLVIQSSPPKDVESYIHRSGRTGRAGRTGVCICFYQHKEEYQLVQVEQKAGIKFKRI

UUUUUUUUUUUUUUU (ssRNA) [FAM-U15]
binding result [1]: binds
binding result [2]: binds
binding result [3]: binds
binding signal [4]: > 50 % of WT
binding signal [5]: ~50 % of WT

Source: publication PMC7375243, “Structural Basis of Human Helicase DDX21 in RNA Binding, Unwinding, and Antiviral Signal Activation” (Advanced Science, 2020)
